Test results published in publication doi:10.1101/2020.06.12.149534 (bioRxiv, 2020).

T1: P113 N-terminal fragment (P. falciparum 3D7), purified soluble analyte (Plasmodium falciparum 3D7, stabilised)
T1 chain: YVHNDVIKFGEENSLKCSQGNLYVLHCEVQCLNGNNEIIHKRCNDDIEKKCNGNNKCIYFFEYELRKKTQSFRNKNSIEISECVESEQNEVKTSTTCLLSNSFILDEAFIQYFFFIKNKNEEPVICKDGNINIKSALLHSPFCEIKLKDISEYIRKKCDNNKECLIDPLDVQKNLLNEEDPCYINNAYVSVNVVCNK

B1: anti-P113 monoclonal antibody P3.2 (antibody, V domains shown)
VH: QVQLQQPGAELVKPGASVRLSCKASGYTFTSYFMYWVRQRPGQGLQSIGGINPNNGGSNFNERFKTKATLTVDKSSSIAYLQLNSLTSEDSAVYYCTRRGLGYDYGGFAYWGQGTLVTVSA
VL: DIQMTQTTSSLSASLGDRVTISCRASQDISNYLNWYQQKPDGTVKLLIYYTSRLHSGVSSRFSGSGSGTDYSLTIKNLEQEDIATYFCQQVNALPPTFGGGTKLEIK

What was measured:
[1] = molecular target: P113 N-terminal fragment D106K E107K, biotinylated bait (Plasmodium falciparum (3D7 strain)) (UniProt Q8ILP3); experiment: SPR
[2] = molecular target: T1, P113 N-terminal fragment (P. falciparum …); experiment: SPR

Molecule | fold reduction in dissociation half-life against wild-type P113 [1] | Kd [2]
purified monomeric RH5 protein (from UniProt Q8IFM5 25-526) (natural protein) | 2 fold | 
B1 |  | 320 nM
